These results are taken from the supplement of paper PMC10126150.

± gives the standard deviation of the averaged measurements.
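Note: ATP exposure 15 min at 22 °C before imaging.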

This data set relates to ATP. Description: switch fluorescence ratio, 500 uM ATP over buffer (Cy3 cluster intensity, sum of 5 cycles each) (fold (ratio)); higher = stronger signal-on switching upon ATP binding; sequences stand for … in TCGTCGGCAGCGTCAGATGTGTATAAGAGACAGTTTTTTTTTTTTTTTTTTTTTTTTT…TC. The note with it: aptamer strand: ATP DNA aptamer (quencher-CACCTGGGGGAGTATTGCGGAGGAAGG + anchor), 100 nM annealed; ATP concentration: 500 uM. Put shortly:
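Clusters with intensities outside 100-1000 RFU were excluded. The remaining Cy3-labelled switching-strand clusters on a modified Illumina MiSeq flow-cell had been annealed to 100 nM quencher-labelled ATP aptamer and imaged in selection buffer, then after 15 min with 500 uM ATP at 22 °C, for five cycles separated by NaOH stripping and re-annealing. The fluorescence ratio, averaged per switch-domain sequence, is each cluster's summed target-cycle Cy3 intensity over its summed buffer-cycle Cy3 intensity.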
As for GGTAATTTTT, the switch fluorescence ratio was determined as 1.01 ± 0.034. In the case of GAGTGCGGGC it was 1.07 ± 0.068; in that of TCTATTATTT, 1.03 ± 0.061.

Regarding GGTCTTAGAA, the switch fluorescence ratio is 1.033 ± 0.0062. The same measure for AAATGAACCG: 1.06 ± 0.013.

ACAGATAAAG: the switch fluorescence ratio is 0.97 ± 0.045. The same measure for GACTACTGCA: 1.13 ± 0.046; for GTCGCTTGTC: 0.995 ± 0.023. The same measure for CTTCTGAGGT: 1.74 ± 0.95; for TAATTTTTTA: 0.976 ± 0.03.

As to CGAATGGAAC, the switch fluorescence ratio came to 0.989 ± 0.017. In the case of TTTGCTTA, the switch fluorescence ratio turned out to be 0.995 ± 0.012.

CACAGTTTGC: the switch fluorescence ratio was found to be 1.02 ± 0.026.

For TTAAGGATAC, the switch fluorescence ratio is 1.15 ± 0.21. In the case of TTCTTGATAA it was 1.01 ± 0.013; in that of TCGGGGTCGT, 0.9859 ± 0.0065. For the sequence GGTTAGGGGC, the switch fluorescence ratio was found to be 0.995 ± 0.04.

Consider CAGCTAGAGG, for which the switch fluorescence ratio worked out at 1 ± 0.037.

Turning to GCGATCAATC, the switch fluorescence ratio was 1.71 ± 0.029. In the case of GCATTAAGAA it was 1.01 ± 0.018; in that of TTATGCCGGG, 0.971 ± 0.032.

As to CGTCATTAAG, the switch fluorescence ratio was 0.9994 ± 0.0054.

Regarding TTAGTTACGG, the switch fluorescence ratio was 0.999 ± 0.019. For GAATTTAGTC, the switch fluorescence ratio turned out to be 1.06 ± 0.077. In the case of CCATGCCGGG it was 0.979 ± 0.052; in that of GGATAAGGAA, 0.9698 ± 0.0076.

GGTGATCTTT: the switch fluorescence ratio is 0.965 ± 0.044. With GATTTTCCAT, the switch fluorescence ratio stood at 1.03 ± 0.021. With ATTGATGTTT, the switch fluorescence ratio worked out at 1.01 ± 0.024. The same measure for TCAGATAGGG: 0.968 ± 0.017; for AATGCTCGGC: 0.9646 ± 0.0092; for CCTACGTGGT: 4.49 ± 0.15. The same measure for GATCTAGTTA: 0.996 ± 0.054; for TATTGGTAGG: 0.941 ± 0.019. The same measure for AATAAAGGGG: 1.19 ± 0.25.

TATTACTCGT: the switch fluorescence ratio is 1.01 ± 0.07. Consider CAGAGTACGT, for which the switch fluorescence ratio was 1.036 ± 0.0091. Regarding TGCCTTGAGA, the switch fluorescence ratio was 1 ± 0.015. The same measure for TTGGTGCGTT: 0.992 ± 0.018; for ATAAGTGATG: 0.995 ± 0.025. In the case of TTGCCTGTTT it was 0.967 ± 0.049; in that of GATGGGCTAG, 0.997 ± 0.025. The same measure for CCTTGGCGCG: 0.995 ± 0.035.

Turning to AGAGGGTTGT, the switch fluorescence ratio turned out to be 0.992 ± 0.031. In the case of TCAGTGCTTA it was 1.01 ± 0.038; in that of TGGCGTGTCA, 1.02 ± 0.051. For AAGCGGTTTT, the switch fluorescence ratio worked out at 1 ± 0.019.

Regarding CGCCGCTGGG, the switch fluorescence ratio was 1.993 ± 0.0075. The same measure for GCTCAATTGA: 1.004 ± 0.01; for TTAAGTGGGT: 0.979 ± 0.061. In the case of ATCGCCATCC it was 1.235 ± 0.0026; in that of TTTTTTATTG, 0.989 ± 0.029. In the case of AAGTGTTGTC it was 1.1 ± 0.033. Regarding GGTTGTTCCG, the switch fluorescence ratio turned out to be 0.9973 ± 0.0073. The same measure for TTGGACTACT: 0.984 ± 0.035. In the case of TAGGGGGCTA it was 0.995 ± 0.027; in that of GGCTTTGGCG, 1.01 ± 0.015. The same measure for GCTTCAGGTC: 1.05 ± 0.074; for AAATTCAATG: 0.995 ± 0.013; for GTGGTCTGTG: 0.972 ± 0.018.

Consider CGGGGTAGCG, for which the switch fluorescence ratio is 0.965 ± 0.013. The same measure for TTTCTGGGGC: 1.08 ± 0.08; for TTGTCGTCGC: 0.989 ± 0.024; for CGAAATCATC: 1.063 ± 0.0053. TGGAGATTGG: the switch fluorescence ratio came to 0.969 ± 0.023. For the sequence ATAGGTATGT, the switch fluorescence ratio amounted to 0.998 ± 0.023.
